Results published in US7943337B2, “Method for screening a protease” (Asahi Kasei Pharma Corporation, priority 2003, dated 2011).

What was measured:
Type in all cases: biochemical
[1] = Reaction for releasing fructosyl valine from FVHL by angiotensin-converting enzyme; conditions: 20 U/ml enzyme solution, 2 mM FVHL, 37° C., 1 hour; 730 nm
Experimental: Then, 200 μl of a coloring solution (50 mM Tris-HCl (pH 7.5), 0.1% Triton X-100, 5 U/ml POD, 50 U/ml FOD2, and 0.02 mM DA-64) was added to each resultant, and the mixture was allowed to react at 37° C. for 5 minutes. Thereafter, 500 μl of 0.5% SDS was added to terminate the coloring reaction, and the absorbance at 730 nm was determined. The same reaction was performed except that distilled water was used instead of the 2 mM FVHL solution. Meanwhile, 200 μl of the coloring solution was added to 40 μl of an FV solution (0, 5, 10, 20, or 50 μM), and determination was performed in the same way as above.

[2] = Substrate specificity of ketoamine oxidases; conditions: for absorbance difference (A1 − Ab): pH 7.5, 37° C., 5 minutes, 555 nm; for relative activity: FVH = 100 (FOD2: FZK = 100)
Experimental: (§1) Determination was performed by the same method described in <Reference Example: Substrate Specificity of Ketoamine Oxidase derived from Curvularia clavata YH923 (FERM BP-10009), Ketoamine Oxidase derived from Neocosmospora vasinfecta 474, and Ketoamine Oxidase derived from Fusarium oxysporum (manufactured by Asahi Kasei Pharma)>.

[3] = Specificity of mutant ketoamine oxidase to various substrates; conditions: Table 17; FVH = 100
Experimental: 100 μl of a preliminary sterilized expression medium (a medium containing 3% of sorbitol, 1.5% of polypeptone, 1.5% of yeast extract, and 50 μg/ml of ampicillin and adjusted to pH 7.0) was added to a 96-well microplate. Grown transformants were inoculated thereto and cultured overnight at 30° C. After the termination of the culture, each 5 μl of the culture solution was dispensed into two wells of a 96-well plate and 50 μl of a determination reagent (a 50 mM Tris-HCl buffer (pH 7.5) containing 1 mM FVH or FZK, 0.02% TOOS, 0.02% 4-aminoantipyrine and 10 U/ml peroxidase) was added to each well, and a reaction was carried out at 30° C. for 10-60 minutes. 150 μl of 0.5% SDS was added thereto to terminate the reaction and absorbance was determined at 550 nm using a Microreader (model 450, manufactured by Bio-Rad). From the constructed mutant library, a recombinant which produces ketoamine oxidase that act on FVH but has a decreased activity on FZK was selected. As a result of the screening, 923-F1 and 923-F2 were obtained as favorable mutant strains. Ketoamine oxidase genes harbored by those mutant strains were sequenced and resulted that mutations were introduced in the bases indicated by Table 15.
Note that, concentration of each substrate was set to be 1 mM and other reaction conditions were set according to the activity determination method described in <Screening of Mutant Ketoamine Oxidase having Decreased Action on FZK>.
Ketoamine oxidase derived from Neocosmospora vasinfecta 474 (FOD474) has high homology to ketoamine oxidases containing FOD923 and its amino acid sequence at an N-terminal region containing 158 of FOD923 is highly conserved as shown in FIG. 1. Using pPOSFOD474, FOD474 mutant strain 474-F1 in which 158 of FOD474 is substituted by a different amino acid (threonine) was acquired. […] 58 is a site that strongly affect on the specificity to FVH even in a case of a ketoamine oxidase derived from other microorganism species.

[4] = pH dependency of specific activity (FZK/FVH)
Experimental: (§2) 20 μl of an enzyme solution was added to 200 μl of a reaction solution (50 mM buffer, 0.1% Triton X-100, 0.03% 4-aminoantipyrine, 0.02% TOOS, 5 U/ml peroxidase, 2 mM substrate). The whole was incubated at 37° C. for 5 minutes and then 500 μl of 0.5% SDS was added thereto followed by determining absorbance at 555 nm. Tris-HCl (pH 7.5, 8.0, 8.5), PIPES (pH 6.0, 6.5, 7.0), and Bistris-HCl (pH 5.0, 5.5, 6.0, 6.5) were used as the buffers for determination. Also, absorbance was determined using a reaction solution containing no substrates. Differences in the absorbance when FVH and FZK each were used as a substrate and concentrations of the enzyme in the enzyme solution to be used are described in Table 18.

[5] = Substrate specificity of ketoamine oxidases; conditions: for absorbance difference (A1 − Ab): pH 7.5, 37° C., 5 minutes, 555 nm; for relative activity: FVH = 100 (FOD2: FZK = 100); remark: listed apart in the source
Experimental: The phrase “reactivity of a ketoamine oxidase to ε-1-deoxyfructosyl-(α-benzyloxycarbonyl-L-lysine) (hereinafter also referred to as FZK) is 5% or less compared with that to 1-deoxyfructosyl-L-valyl-L-histidine (hereinafter also referred to as FVH)” refers to the fact that the rate of the reactivity is 5% or less, which is determined by the following steps: adding 20 μl of a ketoamine oxidase solution to 200 μl of a reaction solution (50 mM Tris-HCl buffer (pH 7.5), 0.1% Triton X-100, 0.03% 4-aminoantipyrine, 0.02% TOOS, 5 U/ml peroxidase, and 2 mM FZK or FVH); allowing the mixture to react at 37° C. for 5 minutes; adding 0.5 ml of 0.5% SDS; determining an absorbance at 555 nm (A1); performing the same operations using a reaction solution containing no FZK and FVH to determine an absorbance (Ab); and determining the reactivity from the difference (A1−Ab).
as §1

[6] = pH dependency of activity of ketoamine oxidase
Experimental: as §2

B1: ACEP: angiotensin-converting enzyme derived from porcine kidney (manufactured by Sigma Corporation) (protein, UniProt F1RRW5 34-1309, looked up)
Angiotensin-converting enzyme: LDSALQPGNFTADEAGAEDFAQSFNSSSEQVLFQSTAASWAHDTNITEENARRQEEAALISQEFSEVWGQKAKALYDPIWQNFTSRTLRRIIGVVRTLGSANLSPAKRQQYNSLLSNMTRIYSTAKVCFPNKTATCWSLDPELTNILATSRSYTLLLYAWEGWHNAAGIPLKPLYQDFTALSNEAYKQDGFSDTGAYWRSLYDSPTFTEDLERLYHQLEPLYLNLHAYVRRALHRQYGDRFINLRGPIPAHLLGNMWAQSWNNIYDMVVPFPGKPSLDVTSAMVQKGWNVTHMFRVAEEFFTSLGLLPMPPEFWAESMLEKPSDGREVVCHASAWDFYNRKDFRIKQCTQVTMDQLSTVHHEMGHVQYYLQYKDQHVSLRRGANPGFHEAIGDVLALSVSTPAHLHKIGLLDHVTSDWESDINYLLKMALEKIAFLPFGYLVDQWRWGVFSGRTPPLYNYDWWYLRTKYQGVCPPVVRNETHFDAGAKYHVPNVTPYIRYFVSFILQFQFHQALCKEAGHQGPLHQCDIYQSTRAGAKLRAVLQAGSSRPWQEVLKDMVGSGALDAQPLLDYFQPVTQWLEEQNQRSGDILGWPEYQWRPPMPDNYPEGIDLVSDEAEASKFVEEYDRRSQVVLNEYAEANWDYNTNITAEGSKRVLEKSTQMANHTVKYGIWARKFDVANIQNFTLKRMIKKIQDLERAALPFKELEEYNQILLDMETAYSVASVCHANSTCLQLEPDLTNLMATSRSYEELLWAWKGWRDKVGRAILPYFPKYVELTNKAARLNGYEDGGDAWRAAYEMPFLEQELEQLFQELQPLYLNLHAYVRRALHHHYGPEHINLEGPIPAHLLGNMWAQTWSNIYDLVVPFPSASKMDASEAMINQGWTPQRMFKEADNFFTSLGLLPVPPEFWNKSMLEKPTDGREVVCHASAWDFFNGKDFRIKQCTTVNMEDLVVAHHEMGHIQYFMQYKDLPVTFREGANPGFHEAIGDVLALSVSTPKHLRSINLLKSEDDGYEEDINFLMKMALDKVAFVPFSYLVDQWRWRVFDRSITKENYNQEWWSLRLKYQGLCPPVARSQGDFDPGAKFHIPSSVPYIRYFVSFIIQFQFHEALCQAAGHKGPLHKCDIYQSKEAGRRLADAMKLGLSKPWPEAMQLITGQPNVSASAMMTYFKPLLDWLVTENGRHGEKLGWPQYNWTPNSARLEGSFAGTGRVNFLGLNLEEQQARVGQWVLLFLGVTLLVATMGLTQRLFSIRHQILRRTHRGPQFGSEVELRHS
absorbance difference showing FV released [1]: −0.006

B2: FOD474: ketoamine oxidase of Neocosmospora vasinfecta 474 that reacts with FVH, expressed in Escherichia coli (protein, listed as Neocosmospora vasinfecta)
chain: MTTPRKETTVLIIGGGGTIGSSTALHLLRAGYTPSNITVLDTYPIPSAQSAGNDLNKIMGIRLRNKVDLQLSLEARDMWRNDALFRPFFHNTGRLDCESSAEGVEGLRREYQKLVEAGVGLEETHEWLDSEEAILEKAPLLQREEIEGWKAIWSEEGGWLAAAKAINAIGEELQRQGVRFGFGGAGSFKRPLFADDGTTCIGVETVDGTQYHADKVVLAAGAWSPALVDLEEQCCSKAWVYAHMQLTPEEAAVYKGCPVVYHGDVGFFFEPNENGVIKVCDEFPGFTRFKQHQPYGAPAPKPVSVPRSHAKHPTDTYPDASEESIKRAVSTFLPRFKDKPLFNRALCWCTDTADSALLICEHPRWKNFILATGDSGHSFKLLPIIGKHVVELVEGRLADDLAEAWRWRPGQGDARKSIRAAPAKDLADMPGWKHDQDSESR
modifications: CDS (1)..(1323)
notes: ketoamine oxidase of Neocosmospora vasinfecta 474 that reacts with FVH, expressed in Escherichia coli
absorbance difference (A1 − Ab) ([2]; 2 mM FV): 0.289
absorbance difference (A1 − Ab) ([2]; 2 mM FVHL): 0.002
absorbance difference (A1 − Ab) ([2]; 2 mM FVHLT): 0.002
absorbance difference (A1 − Ab) ([2]; 2 mM FVL): 0.059
absorbance difference (A1 − Ab) ([2]; 2 mM α-glycated pentapeptide): 0.003
absorbance difference (A1 − Ab) ([2]; 2 mM β-glycated pentapeptide): 0.002
relative activity ([2]; substrate FV): 445%
relative activity ([2]; substrate FVHL): 0%
relative activity ([2]; substrate FVHLT): 0%
relative activity ([2]; substrate FVL): 0.91%
relative activity ([2]; substrate α-glycated pentapeptide): 0%
relative activity ([2]; substrate β-glycated pentapeptide): 0%
specificity, substrate FV [3]: 540
specificity, substrate FVH [3]: 100
specificity, substrate FZK [3]: 40
specific activity (FZK/FVH) ([4]; Bistris pH 5.0): 10.4%
specific activity (FZK/FVH) ([4]; Bistris pH 5.5): 5.2%
specific activity (FZK/FVH) ([4]; Bistris pH 6.0): 4.9%
specific activity (FZK/FVH) ([4]; Bistris pH 6.5): 4.6%
specific activity (FZK/FVH) ([4]; PIPES pH 6.0): 5.0%
specific activity (FZK/FVH) ([4]; PIPES pH 6.5): 6.1%
specific activity (FZK/FVH) ([4]; PIPES pH 7.0): 10.9%
specific activity (FZK/FVH) ([4]; Tris pH 7.5): 19.9%
specific activity (FZK/FVH) ([4]; Tris pH 8.0): 38.5%
specific activity (FZK/FVH) ([4]; Tris pH 8.5): 66.7%
absorbance difference (A1 − Ab) ([5]; 2 mM FVH): 0.221
absorbance difference (A1 − Ab) ([5]; 2 mM FZK): 0.032
relative activity ([5]; substrate FVH): 100%
relative activity ([5]; substrate FZK): 15%
difference in absorbance, substrate FVH ([6]; Bistris pH 5.0): 0.023
difference in absorbance, substrate FZK ([6]; Bistris pH 5.0): 0.012
difference in absorbance, substrate FVH ([6]; Bistris pH 5.5): 0.084
difference in absorbance, substrate FZK ([6]; Bistris pH 5.5): 0.022
difference in absorbance, substrate FVH ([6]; Bistris pH 6.0): 0.187
difference in absorbance, substrate FZK ([6]; Bistris pH 6.0): 0.042
difference in absorbance, substrate FVH ([6]; Bistris pH 6.5): 0.273
difference in absorbance, substrate FZK ([6]; Bistris pH 6.5): 0.063
difference in absorbance, substrate FVH ([6]; PIPES pH 6.0): 0.265
difference in absorbance, substrate FZK ([6]; PIPES pH 6.0): 0.066
difference in absorbance, substrate FVH ([6]; PIPES pH 6.5): 0.303
difference in absorbance, substrate FZK ([6]; PIPES pH 6.5): 0.093
difference in absorbance, substrate FVH ([6]; PIPES pH 7.0): 0.243
difference in absorbance, substrate FZK ([6]; PIPES pH 7.0): 0.132
difference in absorbance, substrate FVH ([6]; Tris pH 7.5): 0.163
difference in absorbance, substrate FZK ([6]; Tris pH 7.5): 0.162
difference in absorbance, substrate FVH ([6]; Tris pH 8.0): 0.104
difference in absorbance, substrate FZK ([6]; Tris pH 8.0): 0.200
difference in absorbance, substrate FVH ([6]; Tris pH 8.5): 0.063
difference in absorbance, substrate FZK ([6]; Tris pH 8.5): 0.210
